Changes are numbered by the printed parent chain. Values belong to the binder of their own block, whether it stands above or below them.
Legend:
[1] = target: polyclonal human IgG; assay: affinity chromatography; VHH on Sepharose resin at about 15 mg/ml ligand density
[2] = target: polyclonal human IgG; assay: affinity chromatography; VHH coupled to NHS-Sepharose 4B FF, polyclonal human IgG 0.5 mg/ml in PBS pH 7.4, 150 cm/hr

B2: anti IgG-CH1 VHH #46 (VHH)
VHH: QVQLQESGGGLVQAGGSLRLSCAVSGNTLSRYAMGWFRQTPGKEREFVAAIRWNNGATYYADSVEGRFTISRDSGKNTVYLQMNNLKPEDTAVYYCAGRFLGYASSNAYHEALYNYDYWGQGTQVTVSS
DBC (dynamic binding capacity) [2]: 11.2 mg/mL

B5: anti IgG-CH1 VHH #84 (VHH)
VHH: B2 VHH with E6D, T40A, K43N, A57N, E65K, G75A, N85S, K87Q, G98A, G102P
DBC (dynamic binding capacity) [2]: 8.27 mg/mL

B6: anti IgG-CH1 VHH #82 (VHH)
VHH: QVQLQESGGGLVQAGGSLRLSCAVSGNTLSRYAMGWFRQAPGNEREFVAAIRWNNGNTYYADSVKGRFTISRDSAKNTVFLQMNSLQPEDTAVYFCAARFLPYASSNAYHEALYNYDYWGQGTQVTVSS
DBC (dynamic binding capacity) [2]: 6.69 mg/mL

B8: anti IgG-CH1 VHH #85 (VHH)
VHH: B2 VHH with T40A, K43N, N85S, K87Q
DBC (dynamic binding capacity) [2]: 11.9 mg/mL

B9: anti IgG-CH1 VHH #83 (VHH)
VHH: B6 VHH with E6D, K65E, F80Y, F95Y
DBC (dynamic binding capacity) [2]: 8.46 mg/mL

B11: anti IgG-CH1 VHH #64 (VHH)
VHH: B2 VHH with E65K
DBC (dynamic binding capacity) [2]: 10.2 mg/mL

B14: anti IgG-CH1 VHH #86 (VHH)
VHH: B6 VHH with E6D, L11S, F80Y
DBC (dynamic binding capacity) [2]: 4.98 mg/mL

B17: anti IgG-CH1 VHH #88 (VHH)
VHH: B6 VHH with L11S, K65E, D73Y, T78L, F80Y, P88A, V93I, F95Y
DBC (dynamic binding capacity) [2]: 7.31 mg/mL

Continued, values first:

DBC (dynamic binding capacity) (mg human IgG/ml resin) [1]: 28 | DBC (dynamic binding capacity) [2]: 8.74 mg/mL
B1: anti IgG-CH1 VHH #01 (VHH)
VHH: B2 VHH with K43N, K87Q

DBC (dynamic binding capacity) [2]: 9.4 mg/mL
B3: anti IgG-CH1 VHH #19 (VHH)
VHH: B2 VHH with K43N, E65K, K87Q

DBC (dynamic binding capacity) [2]: 9.8 mg/mL
B4: anti IgG-CH1 VHH #37 (VHH)
VHH: B2 VHH with E65K, K87Q

DBC (dynamic binding capacity) [2]: 5.61 mg/mL
B7: anti IgG-CH1 VHH #89 (VHH)
VHH: B6 VHH with F80Y, F95Y, A98S

DBC (dynamic binding capacity) [2]: 11.7 mg/mL
B10: anti IgG-CH1 VHH #73 (VHH)
VHH: B2 VHH with K43N, E65K, K76R

DBC (dynamic binding capacity) [2]: 12 mg/mL
B12: anti IgG-CH1 VHH #10 (VHH)
VHH: B2 VHH with K87Q

DBC (dynamic binding capacity) [2]: 11.3 mg/mL
B13: anti IgG-CH1 VHH #55 (VHH)
VHH: B2 VHH with K43N, E65K

DBC (dynamic binding capacity) [2]: 12.5 mg/mL
B15: anti IgG-CH1 VHH #28 (VHH)
VHH: B2 VHH with K43N

DBC (dynamic binding capacity) [2]: 5.64 mg/mL
B16: anti IgG-CH1 VHH #87 (VHH)
VHH: QVQLQESGGGLVQAGASLRLSCEVSGNTLSQYAMGWFRQVPGHKREFVAAIRWTNGNTYYADSVEGRFTISRDSAKKTVYLQMNSLQPDDTAIYYCAARFLPYASSNAYHESLYNYDYWGQGTQVTVSS
